B1: EGFP sgRNA-staple 3, in DX tile with HDR DNA scaffold (ssRNA)
RNA: GCUGAAGCACUGCACGCCGUGUUUUAGAGCUAUGCUGUUGAAAAACAGCAUAGCAAGUUAAAAUAAGGCUAGUCCGUUAUCAACUUGAAAAAGUGGCACCGAGUCGGUGCUUUUUCUGGCCCACCCUCAGCCGCUACCCCGACCACAUGAGCCCGUGCC
B2: PCSK9 sgRNA with 3' staple extension (PB84), folded in DNA pentagonal bipyramid (ssRNA)
RNA: GGCUGAUGAGGCCGCACAUGGUUUUAGAGCUAUGCUGUUCUUCGGAACAGCAUAGCAAGUUAAAAUAAGGCUAGUCCGUUAUCAACUUGAAAAAGUGGCACCGAGUCGGUGCAAAAAUCACCCAGAAACGCUGGUGAAAGUGUAUGAGUAUUCAACAUUUCCGUGUCGCCCUUGUUUUUGCUGCAG

What was measured:
SpCas9 [1] = target: T1, SpCas9 (Streptococcus pyogenes, UniProt Q99ZW2 Q99ZW2:1-1368); assay: EMSA; DX tile band shifted toward well on annealing with Cas9; sgRNA maintained after RNase H; conditions: sgRNA fused to central RNA staple of DX tile
T1 sequence (Q99ZW2 whole entry, the tested form may be a part, one chain of several): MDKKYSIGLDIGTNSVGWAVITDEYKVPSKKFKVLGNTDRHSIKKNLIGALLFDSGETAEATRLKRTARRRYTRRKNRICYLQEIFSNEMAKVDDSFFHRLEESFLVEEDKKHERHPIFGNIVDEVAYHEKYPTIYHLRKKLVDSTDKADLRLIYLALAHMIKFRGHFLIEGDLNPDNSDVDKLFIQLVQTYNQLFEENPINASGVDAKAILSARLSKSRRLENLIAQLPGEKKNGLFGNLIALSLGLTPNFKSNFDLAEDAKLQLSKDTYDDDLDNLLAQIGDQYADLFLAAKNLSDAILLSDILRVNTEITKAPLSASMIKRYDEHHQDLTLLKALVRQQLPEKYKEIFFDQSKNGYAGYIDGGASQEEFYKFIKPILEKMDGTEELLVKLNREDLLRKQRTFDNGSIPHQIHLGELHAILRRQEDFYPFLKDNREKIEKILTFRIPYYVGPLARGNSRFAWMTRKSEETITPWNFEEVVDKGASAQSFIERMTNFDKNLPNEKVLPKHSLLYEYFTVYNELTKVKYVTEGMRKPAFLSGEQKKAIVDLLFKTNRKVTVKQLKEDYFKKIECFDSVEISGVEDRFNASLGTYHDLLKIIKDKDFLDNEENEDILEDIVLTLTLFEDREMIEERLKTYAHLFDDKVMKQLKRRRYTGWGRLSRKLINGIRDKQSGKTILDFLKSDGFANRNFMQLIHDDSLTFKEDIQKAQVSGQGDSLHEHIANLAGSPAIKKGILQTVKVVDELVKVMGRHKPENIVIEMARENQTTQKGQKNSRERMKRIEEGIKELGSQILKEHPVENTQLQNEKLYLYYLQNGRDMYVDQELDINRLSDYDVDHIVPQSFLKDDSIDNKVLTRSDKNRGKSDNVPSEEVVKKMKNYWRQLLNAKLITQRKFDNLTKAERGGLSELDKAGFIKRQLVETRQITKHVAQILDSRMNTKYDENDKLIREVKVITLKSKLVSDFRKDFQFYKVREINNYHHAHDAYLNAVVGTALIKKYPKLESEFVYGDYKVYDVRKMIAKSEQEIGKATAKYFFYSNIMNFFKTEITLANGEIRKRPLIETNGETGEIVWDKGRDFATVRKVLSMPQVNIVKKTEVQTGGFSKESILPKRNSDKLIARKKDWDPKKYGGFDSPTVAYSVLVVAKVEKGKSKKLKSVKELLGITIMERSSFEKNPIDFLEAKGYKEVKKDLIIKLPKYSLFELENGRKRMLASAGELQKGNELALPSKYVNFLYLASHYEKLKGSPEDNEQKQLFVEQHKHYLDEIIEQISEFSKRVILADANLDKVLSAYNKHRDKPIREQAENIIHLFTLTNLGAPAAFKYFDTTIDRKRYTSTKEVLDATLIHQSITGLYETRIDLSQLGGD
Protocol: Dx-tiles were made either containing the Gint or broccoli aptamers. To prepare the folded DX-tiles, the components (e.g., DNA scaffold, two flanking/end staples encoding either the Gint (i.e., Gint4.T and Gint21.T) or broccoli aptamers, and central staple) were mixed in equimolar concentrations and allowed to anneal over 2 hours from 95 C to 25 C. The resulting structures were visualized by gel electrophoresis.
Several bands were originally visualized, showing impurities in the production. […] Given that staple 2 spans across the region targeted by the sgRNA and could therefore contribute to misfolding, in a repeat experiment, staple 2 was left out of the folding mixture. This yielded higher folding. Upon addition and annealing with Cas9, the DX tile band was closer to the well on the gel. Addition of RNase H both with and without Cas9 released the HDR template.

SpCas9 [2] = target: T1, SpCas9; assay: EMSA; 5x molar Cas9 shifted nanoparticle band into the well; conditions: sgRNA whose 3' extension hybridises to DNA scaffold
Protocol: The DNA was amplified and purified by Qiagen, and transcribed using the NEB T7 HiScribe kit modified for short RNA production, and purified by PAGE purification. It was then folded with 50 mM HEPES-KOH pH 7.5, 300 mM KCl following the RNA/DNA hybrid folding protocol. The excess staples were purified away from the PB84 with a 100 kDa MWCO filter. A 2% high resolution agarose gel with 1×TAE buffer and 4 mM Mg-acetate was run at 4 C in the cold room at 65V for 180 minutes.
It was observed that the nanoparticle with the RNA staple presented a band at the same size as the all-DNA staple nanoparticle.

Binder	binding result (SpCas9 [1])	binding result (SpCas9 [2])
B1	binds	–
B2	–	binds

Reference: US20210317479, “NUCLEIC ACID ASSEMBLIES FOR USE IN TARGETED DELIVERY” (The Broad Institute, Inc., published 2021)
